In the supplement of paper PMC10567573:

Experiment: protein stability index of a GFP-peptide fusion (GPS, HEK-293T) (PSI 1-6); higher = more stable
Conditions: c terminus: a fixed tail appended
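Also: lentivirally expressed fusions sorted by FACS into six bins by GFP to DsRed ratio, PSI derived from sequencing read proportions per bin multiplied by bin number.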

## AQLQALRQKEVDFCISLLRERFME
parent: IOH41890_38
  protein stability index: 2.31

## YPPLEGHVRQGVFSSLNHIVEKRV
parent: IOH41890_75
  protein stability index: 2.53

## FSDDEEDLNSKGKKREFRFHPIKE
parent: IOH41890_90
  protein stability index: 2.85

## DLNSKGKKREFRFHPIKETVVEEP
parent: IOH41890_91
  protein stability index: 2.23

## KKREFRFHPIKETVVEEPVDITPY
parent: IOH41890_92
  protein stability index: 1.94

## FHPIKETVVEEPVDITPYLDQLDE
parent: IOH41890_93
  protein stability index: 3.32

## EEITEESLEESVGKPLYLIFRNLC
parent: IOH41890_107
  protein stability index: 2.68

## EEAEELAKEMSVPFYTSRIDEVLL
parent: IOH42390_7
  protein stability index: 3.76

## SDDFCTFQMVLEGGVCCTVTLNFN
parent: IOH42390_37
  protein stability index: 3.15

## RRPSPVLRHLELLDEFARENIDSL
parent: IOH42569_24
  protein stability index: 2.6

## IRVMVHGRNHTPFLGHHSFSVRPG
parent: IOH42569_55
  protein stability index: 2.25

## FLGHHSFSVRPGTEATISIREDEV
parent: IOH42569_57
  protein stability index: 1.72

## FYRLYQDLETHRLPCTSRCPRPCR
parent: IOH42569_73
  protein stability index: 2.21

## DPNKMAFGCEECGKKYNTMLGYKR
parent: IOH42591_15
  protein stability index: 2.34

## LELGSTEVLLDHLKAHAEEKPPSG
parent: IOH42591_22
  protein stability index: 4.44

## EKPPSGTKEKKHQCDHCERCFYTR
parent: IOH42591_25
  protein stability index: 3.58

## TKEKKHQCDHCERCFYTRKDVRRH
parent: IOH42591_26
  protein stability index: 3.45

## CKDFLCQFCAQRFGRKDHLTRHTK
parent: IOH42591_31
  protein stability index: 2.02

## FTSGFNAAALDYEADGSTNNGIFQ [SPACA3 WT]
parent: IOH42995_21
  protein stability index: 1.89

## YPCLEKPRIWSLAHTATASAVEGA [IRX6 WT]
parent: IOH43040_58
  protein stability index: 2.44

## YSAYIRRCACAASSDESPGSKCSP [TTC32 WT]
parent: IOH43157_6
  protein stability index: 1.99

## ETAAGKGKGEARARLKRSQSFGVA
parent: IOH43320_31
  protein stability index: 4.31

## QKNFELAFTMAENLANCERLIEVE
parent: IOH43320_45
  protein stability index: 1.84

## AFTMAENLANCERLIEVEDMMVMG
parent: IOH43320_46
  protein stability index: 2.04

## DRKLHSRPRKLYKHSSTSSRIAKG
parent: IOH43395_4
  protein stability index: 3.86

## FVYENAKEGARNIRTSERVTLIVD
parent: IOH43395_26
  protein stability index: 1.94

## LCKDCQVIDGRNVTVTDVDIVFSK [TPPP WT]
parent: IOH43477_14
  protein stability index: 2.25
